Experiments:
[1] = test system: MDA-MB-231 human mammary carcinoma cells; experiment: Cell spreading assay (rhodamine-phalloidin), MDA-MB-231; format: cell-based; conditions: 2 h, LM609 30 μg/mL, GST-mS1ED or GST-mS4ED 20 μM; for cell spreading on FN: wells coated with 10 μg/mL FN, mAb 13 25 μg/mL; for cell spreading on VN: wells coated with 10 μg/mL VN, absence of serum
Procedure: FIG. 1 —MDA-MB-231 human mammary carcinoma cell spreading on VN, but not FN, is disrupted by soluble, recombinant Sdc-1ED. Cells were plated on wells coated with 10 μg/mL of VN or FN in plating medium alone or medium containing either 30 μg/mL mAb LM609, 25 μg/mL mAb 13, 20 μM GST-mS1ED or -mS4ED. Cells were incubated at 37° C. for 2 h, fixed and stained with rhodamine-conjugated phalloidin. Bar, 50 μm.
FIGS. 6A-B—Deletion of a region of the Sdc-1ED blocks αvβ3-mediated cell spreading. (FIG. 6A) Graphic representation of S1 expression constructs transfected into MDA-MB-231 cells and their relative expression levels as detected by FACS (mean fluorescent intensity). Note the locations of the mAb 281.2 and B-B4 binding sites; asterisks indicate the HS attachment sites. (FIG. 6B) Cells transfected with empty vector (NEO) or S1 constructs were seeded in plating medium on wells coated with either anti-hS1 mAb B-B4 (NEO+inset, hS1 and insets of mS1) or anti-mS1 mAb 281.2 (all others). Where noted, cells were pretreated in suspension with 1 μg/mL mAb P5D2 for 15 min prior to plating. Cells were incubated at 37° C. for 2 h, fixed and stained with rhodamine-conjugated phalloidin. Bar, 50 μm.
FIGS. 8A-H—Downregulation of Sdc-1 expression by siRNA disrupts cell spreading and migration on VN. (FIG. 8A) SiRNA targeting of hS1 mRNA. FACS analysis for (FIGS. 8B-C) hS1 (mAb B-B4), (FIG. 8D) hS4 (mAb F94-8G3) and (FIG. 8E) mS1 (mAb 281.2) expression against IgG controls (black filled histograms) in NEO and GPI-mS1ED expressing MDA-MB-231 cells 72 h after transfection with either lipid-vehicle alone (Vehicle or (V)) or 200 nM siRNA (RNAi or (R)). (FIG. 8F) NEO^MDA-MB-231 cells and MDA-MB-231 cells expressing GPI-mS1ED, mS1^Δ88-252, mS1^Δ122-252 and mS1^TDM were transfected with lipid-vehicle alone or 200 nM hS1-siRNA and seeded on wells coated with either 10 μg/ml of VN or FN. Cells were incubated at 37° C. for 2 h, fixed and stained with rhodamine-conjugated phalloidin. Bar, 50 μm. (FIG. 8G-H) Lipid-vehicle (gray-filled) or hS1-siRNA (black-filled) transfected cells were also plated on polycarbonate filters coated with either 10 μg/ml of VN (FIG. 8G) or FN (FIG. 8H) in a modified Boyden chamber. After 16 h, cells that migrated through the filter in response to 10% FBS in the lower chamber were quantified by colorimetric staining.
MDA-MB-231 human mammary carcinoma cells, plated in the absence of serum, adhere to and spread (˜15-20 min after plating) on wells coated with either 10 μg/mL VN or FN (FIG. 1). […] LM609 has no effect on spreading in response to FN; instead, the cells rely on […] to respond to FN as spreading is blocked by either 25 μg/mL mAb 13 (FIG. 1; Mould et al., 1996) or mAb 16 (unpublished data; Akiyama et al., 1989). […]

[2] = test system: MDA-MB-231 human mammary carcinoma cells; conditions: no integrin ligand; Beauvais and Rapraeger, 2003; cited from earlier work
[3] = biological target: αvβ3 integrin (human, on MDA-MB-231, MDA-MB-435, HAEC and HMEC cells) (human) (UniProt P06756); experiment: cell-based or functional assay
αvβ3 integrin (human, on MDA-MB-231, MDA-MB-435, HAEC and HMEC cells) (human), sequence (P06756 31-1048, chain 1 of 2): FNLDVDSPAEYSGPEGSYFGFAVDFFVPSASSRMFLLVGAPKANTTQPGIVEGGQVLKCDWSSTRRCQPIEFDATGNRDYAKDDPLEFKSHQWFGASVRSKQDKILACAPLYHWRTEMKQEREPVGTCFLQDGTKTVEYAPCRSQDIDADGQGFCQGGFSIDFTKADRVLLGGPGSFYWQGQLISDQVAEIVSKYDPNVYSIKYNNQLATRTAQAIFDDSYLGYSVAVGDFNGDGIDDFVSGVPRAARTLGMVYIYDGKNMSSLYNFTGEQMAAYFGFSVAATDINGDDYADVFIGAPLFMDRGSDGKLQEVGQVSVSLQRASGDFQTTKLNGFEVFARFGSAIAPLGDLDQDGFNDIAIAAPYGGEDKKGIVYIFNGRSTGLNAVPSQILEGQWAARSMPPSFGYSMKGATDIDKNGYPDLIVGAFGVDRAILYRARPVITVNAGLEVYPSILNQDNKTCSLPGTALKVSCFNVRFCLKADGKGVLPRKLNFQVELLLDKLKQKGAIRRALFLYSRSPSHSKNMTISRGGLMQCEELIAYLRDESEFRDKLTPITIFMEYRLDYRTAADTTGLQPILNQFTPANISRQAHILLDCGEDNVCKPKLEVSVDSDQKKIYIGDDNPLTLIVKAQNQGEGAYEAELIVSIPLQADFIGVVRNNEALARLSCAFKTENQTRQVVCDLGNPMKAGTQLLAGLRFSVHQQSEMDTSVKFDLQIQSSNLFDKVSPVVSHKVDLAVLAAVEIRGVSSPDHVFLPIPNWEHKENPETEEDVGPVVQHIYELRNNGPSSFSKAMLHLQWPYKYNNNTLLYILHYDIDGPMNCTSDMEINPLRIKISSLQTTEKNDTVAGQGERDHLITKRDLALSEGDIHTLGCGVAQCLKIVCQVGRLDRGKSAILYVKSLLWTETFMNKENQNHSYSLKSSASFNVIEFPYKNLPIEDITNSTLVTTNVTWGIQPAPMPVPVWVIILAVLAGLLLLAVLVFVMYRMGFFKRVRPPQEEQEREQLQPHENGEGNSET
αvβ3 integrin (human, on MDA-MB-231, MDA-MB-435, HAEC and HMEC cells) (human), sequence (P05106 27-788, chain 2 of 2, further chain): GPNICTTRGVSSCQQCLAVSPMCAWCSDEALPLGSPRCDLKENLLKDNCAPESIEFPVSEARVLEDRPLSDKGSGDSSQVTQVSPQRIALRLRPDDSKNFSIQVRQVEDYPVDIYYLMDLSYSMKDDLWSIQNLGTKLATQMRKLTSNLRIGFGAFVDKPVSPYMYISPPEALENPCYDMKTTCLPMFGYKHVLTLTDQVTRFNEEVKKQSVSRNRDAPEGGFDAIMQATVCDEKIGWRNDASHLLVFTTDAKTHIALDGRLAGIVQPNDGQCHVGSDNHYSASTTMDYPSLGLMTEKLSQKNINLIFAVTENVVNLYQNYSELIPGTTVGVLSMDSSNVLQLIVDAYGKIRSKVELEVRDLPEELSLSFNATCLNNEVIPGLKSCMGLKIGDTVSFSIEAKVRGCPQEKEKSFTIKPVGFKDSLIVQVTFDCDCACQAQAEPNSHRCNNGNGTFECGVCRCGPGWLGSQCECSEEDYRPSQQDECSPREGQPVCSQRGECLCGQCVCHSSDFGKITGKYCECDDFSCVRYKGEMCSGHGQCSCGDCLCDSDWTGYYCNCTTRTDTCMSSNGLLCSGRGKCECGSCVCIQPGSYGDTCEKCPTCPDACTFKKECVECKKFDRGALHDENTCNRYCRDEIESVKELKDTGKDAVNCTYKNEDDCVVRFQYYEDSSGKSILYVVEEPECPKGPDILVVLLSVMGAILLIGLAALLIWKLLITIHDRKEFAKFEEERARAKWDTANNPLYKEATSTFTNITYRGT

[4] = test system: MCF-7 cells; experiment: Migration across coated filters (modified Boyden chamber), MCF-7; format: cell-based, human; conditions: S1ED pAb 250 μg/mL or GST-mS1ED 20 μM; 16 h
Procedure: (§1) FIGS. 5A-B—Sdc-1ED Inhibitors disrupt αvβ3 integrin-dependent cell migration on VN. MDA-MB-231, MDA-MB-435 and MCF-7 cells in plating medium alone (black-filled) or in plating medium containing either 20 μM GST-mS1ED (open) or 250 μg/mL polyclonal mS1ED antibodies (gray-filled) were seeded on polycarbonate filters coated with either 10 μg/ml of VN (FIG. 5A) or FN (FIG. 5B) in a modified Boyden chamber. After 16 h, cells that migrated through the filter in response to 10% FBS in the lower chamber were quantified by colorimetric staining.
(§2) To test the role of the S1ED in αvβ3 integrin dependent signaling in another functional assay, cells were examined for their ability to migrate across VN or FN-coated filters in the presence or absence of S1ED pAb (250 μg/mL) or GST-mS1ED recombinant protein (20 μM). Migration of treated MDA-MB-231 and MB-435 cells across VN is suppressed 2- to 4-fold relative to untreated controls (FIG. 5A). MCF-7 cell migration across VN, which is αvβ1 dependent, is unaffected by either treatment.

[5] = test system: MDA-MB-231 and MB-435 cells; experiment: Migration across coated filters (modified Boyden chamber), MDA-MB-231 and MB-435; format: cell-based, human; conditions: S1ED pAb 250 μg/mL or GST-mS1ED 20 μM; 16 h
Procedure: as §1, §2

B1: GST-mS1ED: recombinant mouse syndecan-1 ectodomain expressed as a fusion protein with GST (protein)
chain: QIVAVNVPPEDQDGSGDDSDNFSGSGTGALPDTLSRQTPSTWKDVWLLTATPTAPEPTSSNTETAFTSVLPAGEKPEEGEPVLHVEAEPGFTARDKEKEVTTRPRETVQLPITQRASTVRVTTAQAAVTSHPHGGMQPGLHETSAPTAPGQPDHQPPRVEGGGTSVIKEVVEDGTANQLPAGEGSGEQDFTFETSGENTAVAAVEPGLRNQPPVDEGATGASQSLLDRKEVLG
modifications: left off: a dimerising Fc or GST
notes: recombinant mouse syndecan-1 ectodomain expressed as a fusion protein with GST
What does the source list for B1?
cell spreading on FN [1]: no effect; cell spreading on VN [1]: blocks cell spreading; collaboration between Sdc-1 and αvβ3 integrins in cells adherent to Sdc-1-specific antibody [2]: disrupted; migration of MDA-MB-231 and MB-435 cells across VN, 20 µM GST-mS1ED [3]: 2 to 4 fold; cell migration across FN [4]: neither inhibitor has any effect; cell migration across VN [4]: unaffected; cell migration across FN [5]: neither inhibitor has any effect

B2: GST-mS4ED: recombinant GST fusion of mouse syndecan-4 ectodomain, specificity control (protein)
chain: ESIRETEVIDPQDLLEGRYFSGALPDDEDAGGSDDFELSGSGDLDDTEEPRPFPEVIEPLVPLDNHIPENAQPGIRVPSEPKELEENEVIPKRAPSDVGDDMSNKVSMSSTAQGSNIFERTE
modifications: left off: a dimerising Fc or GST
notes: recombinant GST fusion of mouse syndecan-4 ectodomain, specificity control
Which “cell spreading on FN” value [1] does the source give for B2 here?
Its value is “no effect”.

And the “cell spreading on VN” value [1]?
The value was “no effect”.
